The text below walks through data of patent US20110081661A1, “Modified photoproteins with increased affinity for calcium and enhanced bioluminescence and uses thereof” (Millipore Corporation, priority 2009, published 2011).

What all share (type): cell-based
Test [1] in a line: Calcium affinity of mitochondrial photoproteins, transient co-transfection with H1 histamine receptor in HEK293T cells (FIG. 2). The note with it: HEK293T cells co-transfected with H1 histamine receptor; Triton X-100, free calcium 17 nM to 39.6 μM; total bioluminescence at 20 seconds; read-out: EC50 value (affinity for Ca^2+). From the text: Following the generation of modified forms of Clytin, the various variants were compared with wt-Aequorin for their affinity for intracellular calcium in transient transfection assays using co-transfection with the H1 histamine receptor (Genbank Accession No. NM_000861, obtained by PCR using H1-specific primers from a human brain cDNA library, forward primer 5′-[…] ATTCCTC-3′ (SEQ ID NO:60), reverse primer 5′-[…] AATTCTC-3′ (SEQ ID NO:61).
(§1) In an exemplary experiment, HEK293T cells (ATCC-CRL-11268) were transiently co-transfected with 2 μgs of each of pcDNA3.1-H1 (containing the cDNA encoding the H1 histamine receptor) and pcDNA3.1 containing the cDNAs encoding wild type mitochondrial Clytin (referred to as mt-Clytin), modified mitochondrial Clytin having a lysine to aspartic acid mutation at position 168 (referred to as mt-Clytin K168D), modified mitochondrial Clytin having a lysine to glutamic acid mutation at position 168 (referred to as mt-Clytin K168E), wild-type mitochondrial Obelin (referred to as mt-Obelin) or wild type mitochondrial Aequorin (referred to as mt-Aequorin) using the Targefect-293 reagent (TARGETING SYSTEMS). 48 hours later, the cells were detached using Accutase (MILLIPORE), centrifuged, and resuspended in […] in FreeStyle293 media (INVITROGEN), for incubation for 3-4 hours at room temperature in the dark. After incubation, the cells were centrifuged and resuspended in HBSS/HEPES buffer without Ca^2+ at a density of 1×10^6 cells/ml. Next, 100 μl/well of cell suspension for each transfection were added by the use of a Victor2 luminometer plate reader (WALLAC, […]), to a 96-well plate containing 50 μL/well Triton X-100 in MOPS/KCl buffer containing 10 mM EGTA and a series of Ca^2+ concentrations, such that free calcium concentrations ranged from 17 nM to 39.6 μM, followed by for measurement of total bioluminescence at 20 seconds.

The target in the next test is T1, GIP Receptor (Homo sapiens, UniProt P48546).
T1 construct: host or cells: HEK293T
T1 sequence (P48546 22-466): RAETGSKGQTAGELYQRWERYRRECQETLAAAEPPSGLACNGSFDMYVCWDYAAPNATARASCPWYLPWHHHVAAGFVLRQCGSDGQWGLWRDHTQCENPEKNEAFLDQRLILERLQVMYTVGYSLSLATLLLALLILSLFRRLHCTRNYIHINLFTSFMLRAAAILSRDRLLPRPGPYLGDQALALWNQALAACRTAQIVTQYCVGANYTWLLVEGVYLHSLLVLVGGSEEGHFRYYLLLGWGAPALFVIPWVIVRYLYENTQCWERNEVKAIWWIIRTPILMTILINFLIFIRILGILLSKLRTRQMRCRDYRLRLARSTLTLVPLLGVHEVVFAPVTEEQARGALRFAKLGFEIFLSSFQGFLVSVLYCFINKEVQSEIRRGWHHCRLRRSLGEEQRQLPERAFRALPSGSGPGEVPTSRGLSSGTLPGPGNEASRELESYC
The test can be described thus: GIP receptor-mediated bioluminescence in HEK293T cells with chimeric promiscuous G protein (FIG. 5, Table II). The settings on record: for % GPCR/total: signal induced by maximal GIP (1 μM) as percentage of signal induced by Triton X-100 with 1 mM Ca^2+; for Signal: background with GIP: signal induced by maximal GIP (1 μM) divided by signal induced by buffer alone. As to the method: However, coexpression of GIP receptor with a chimeric G protein containing sequences from Gαs and Gαq enable the GIP receptor to stimulate calcium flux.
The results of the dose response curve to varying concentrations of GIP with a subset of the photoproteins are summarized in FIG. 5.
(§2) Signal to background ratio was calculated as the signal induced by maximal GIP (1 μM) divided by the signal induced by buffer alone. The EC50 value for calcium was determined as described above for FIG. 2 for mitochondrially targeted photoproteins transfected into HEK293T cells in the absence of a cotransfected GPCR or G protein. Affinity for calcium was correlated with the properties of the amino acid side chain at residue 168 of Clytin.
The EC50 value for receptor-mediated calcium flux induced by the ligand was determined by plotting luminescence (Y-axis) versus ligand concentration applied to the cells (X-axis), and applying a sigmoidal dose-response curve-fitting algorithm (GraphPad Prism). GPCR-mediated signals of the various modified forms of Clytin having an amino acid substitution at position 168 were also related to the nature of the side chain. In addition, the subcellular location of the photoproteins (cytosolic vs mitochondrial) appeared to have an effect on GPCR-mediated signals. […] All of the other mitochondrially targeted mutants except for Clytin K168R and wild-type Clytin yielded results that were in the range of those observed for wt-Aequorin.

The nature of test [2]: Calcium EC50 of mitochondrially targeted photoproteins in HEK293T cells without cotransfected GPCR or G protein (Table II). The settings on record: no cotransfected GPCR or G protein.
Description: as §1, §2

In a further test the target is T2, H1 histamine receptor (Homo sapiens, UniProt P35367).
T2 construct: expressed in transfected cells; host or cells: U-2OS
T2 sequence (P35367 whole entry): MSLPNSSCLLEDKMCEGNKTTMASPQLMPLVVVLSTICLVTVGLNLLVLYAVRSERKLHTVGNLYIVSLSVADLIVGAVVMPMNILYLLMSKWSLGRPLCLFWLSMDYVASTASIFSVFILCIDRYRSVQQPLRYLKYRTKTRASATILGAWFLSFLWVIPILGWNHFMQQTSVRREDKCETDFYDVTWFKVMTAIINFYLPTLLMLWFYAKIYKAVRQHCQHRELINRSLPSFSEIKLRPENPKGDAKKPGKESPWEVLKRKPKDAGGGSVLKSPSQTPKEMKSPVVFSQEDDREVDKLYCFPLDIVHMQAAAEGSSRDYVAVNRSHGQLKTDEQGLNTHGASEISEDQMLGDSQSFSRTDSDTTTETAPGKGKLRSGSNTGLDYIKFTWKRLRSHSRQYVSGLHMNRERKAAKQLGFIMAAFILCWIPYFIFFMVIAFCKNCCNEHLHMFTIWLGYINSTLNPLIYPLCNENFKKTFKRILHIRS
The experiment in a line: GPCR-mediated versus total bioluminescence in U-2OS cells (FIG. 4). The settings on record: 10 μM histamine vs Triton X-100 with 1 mM calcium. As to the method:
In another experiment, the ability of the various photoproteins to detect calcium flux in live cells was assessed by adding varying concentrations of histamine to cells in order to activate the H1 histamine receptor followed by measurement of bioluminescence of the various photoproteins. U-2OS cells were transfected with a cDNA encoding H1 histamine receptor along with a cDNA encoding either a wild-type photoprotein or a modified photoprotein according to the invention, as described above in Example 2, except that Lipofectamine-2000 (INVITROGEN) was used as the transfection reagent. On the second day, the cells were trypsinized, counted, and plated in a white tissue-culture treated 96-well plate (COSTAR) at a density of about 50,000 cells/well in growth media consisting of DMEM containing 10% fetal bovine serum, non-essential amino acids, HEPES and penicillin/streptomycin. On the third day, the medium was removed and cells were washed once with 200 μl/well of HBSS/HEPES (containing Ca^2+). Cells were subsequently incubated with 5 μM coelenterazine in HBSS/HEPES (containing Ca^2+) in a volume of 200 μl/well, for 3-4 hours at room temperature in the dark. After incubation, the coelenterazine solution was removed and cells were washed and replaced with HBSS/HEPES buffer containing both Ca^2+ and Mg^2+. 50 μl/well of histamine at varying concentrations in HBSS/HEPES containing both Ca^2+ and Mg^2+ was added to the cells and total bioluminescence was measured at 20 seconds using a Victor2 luminometer.
In an exemplary experiment, U-2OS cells were transfected, plated and loaded with coelenterazine as described in Example 3. Luminescence induced by buffer alone or by 10 μM histamine was measured also as described in Example 3. Additionally, luminescence induced by addition of Triton X-100 in the presence of 1 mM calcium was also determined in order to assess the total amount of active photoprotein detectable using saturating calcium concentrations in cells.

The mark [3] stands for this setting: HEK293T cells, GIP Receptor + promiscuous G protein.
Setting [4] is: HEK293T cells, GIP Receptor + promiscuous G protein, luminescence vs GIP concentration.

B1: Mt-aequorin: Mitochondrial Wild-type Aequorin (mt-Aequorin), SEQ ID NO:6 (protein, listed as Aequorea victoria)
chain: MSVLTPLLLRGLTGSARRLPVPRAKIHSLPPEGKLTSDFDNPRWIGRHKHMFNFLDVNHNGKISLDEMVYKASDIVINNLGATPEQAKRHKDAVEAFFGGAGMKYGVETDWPAYIEGWKKLATDELEKYAKNEPTLIRIWGDALFDIVDKDQNGAITLDEWKAYTKAAGIIQSSEDCEETFRVCDIDESGQLDVDEMTRQHLGFWYTMDPACEKLYGGAVP
Turning to B1, the EC50 in test [1] was determined as 269 nM; with GIP Receptor (setting [4]) it was 11.3 nM; in test [2], 235 nM. Besides, the “Max signal with GIP (RLU × 10^−5)” value with GIP Receptor (setting [3]) is reported as 4.68 RLU × 10^−5. Further, the “% GPCR/total” value in the test with GIP Receptor came out at 23.9%. The “Signal: background with GIP” value with GIP Receptor turned out to be 84.7. For the same molecule, the “GPCR-mediated signal as % of the total signal” value (“GPCR-mediated signal as %” for short) with H1 histamine receptor is reported as “about 70%”.

B2: Cyto-clytin wt: Wild type Clytin (wt-Clytin) amino acid sequence, SEQ ID NO:1; cytosolic (protein, listed as Clytia gregaria)
chain: MADTASKYAVKLRPNFDNPKWVNRHKFMFNFLDINGDGKITLDEIVSKASDDICAKLGATPEQTKRHQDAVEAFFKKIGMDYGKEVEFPAFVDGWKELANYDLKLWSQNKKSLIRDWGEAVFDIFDKDGSGSISLDEWKAYGRISGICSSDEDAEKTFKHCDLDNSGKLDVDEMTRQHLGFWYTLDPNADGLYGNFVP
On to B2, for which, in the test with GIP Receptor (setting [3]), the “Max signal with GIP (RLU × 10^−5)” value was found to be 0.2 RLU × 10^−5. Also, in the test with GIP Receptor (setting [4]), the EC50 was 9.67 nM. In addition, in the test with GIP Receptor, the “% GPCR/total” value worked out at 0.3% and the “Signal: background with GIP” value amounted to 7.0. For the same molecule, the “GPCR-mediated signal as %” value in the test with H1 histamine receptor is on record as roughly 3%.

B3: Mt-clytin K168D: Mitochondrial K168D modified Clytin, SEQ ID NO:10 (protein)
chain: MSVLTPLLLRGLTGSARRLPVPRAKIHSLPPEGKLRPNFDNPKWVNRHKFMFNFLDINGDGKITLDEIVSKASDDICAKLGATPEQTKRHQDAVEAFFKKIGMDYGKEVEFPAFVDGWKELANYDLKLWSQNKKSLIRDWGEAVFDIFDKDGSGSISLDEWKAYGRISGICSSDEDAEKTFKHCDLDNSGDLDVDEMTRQHLGFWYTLDPNADGLYGNFVP
B3: the values for the EC50 (in test [1]; with GIP Receptor (setting [4]); in test [2]) were 129 nM, 9.1 nM and 160 nM, respectively. In addition, the “signal intensities, GIP dose response (FIG. 5)” value in the test with GIP Receptor (HEK293T cells, GIP 10^−11 to 10^−6 M) was “significantly higher signal intensities than any of the wild-type photoproteins”. Further, the “Max signal with GIP (RLU × 10^−5)” value is 7.90 RLU × 10^−5 with GIP Receptor (setting [3]) and “maximal signal” with GIP Receptor (HEK293T cells, GIP Receptor + promiscuous G protein, listed as mt-Clytin K168D). Further, the “EC50 for GIP (nM)” value with GIP Receptor (setting [4]) is reported as “lowest EC50”. Further, the “% GPCR/total” value with GIP Receptor is 34.4%; with GIP Receptor (listed as mt-Clytin K168D), “highest % GPCR/total”. Further, the figures for the “Signal: background with GIP” value with GIP Receptor and in the test with GIP Receptor (listed as mt-Clytin K168D) were 188.2 and “highest signal to background ratio”, respectively. In addition, in the test with H1 histamine receptor, the “GPCR-mediated signal as %” value was roughly 100%.

B4: Mt-clytin K168E: Mitochondrial K168E modified Clytin, SEQ ID NO:12 (protein)
chain: MSVLTPLLLRGLTGSARRLPVPRAKIHSLPPEGKLRPNFDNPKWVNRHKFMFNFLDINGDGKITLDEIVSKASDDICAKLGATPEQTKRHQDAVEAFFKKIGMDYGKEVEFPAFVDGWKELANYDLKLWSQNKKSLIRDWGEAVFDIFDKDGSGSISLDEWKAYGRISGICSSDEDAEKTFKHCDLDNSGELDVDEMTRQHLGFWYTLDPNADGLYGNFVP
Regarding B4, the 50% effective concentration (EC50) in test [1] worked out at 173 nM; in the test with GIP Receptor (setting [4]) it was 21.6 nM; in test [2], 176 nM. For the same molecule, the “Max signal with GIP (RLU × 10^−5)” value in the test with GIP Receptor (setting [3]) was found to be 6.07 RLU × 10^−5. Besides, the “% GPCR/total” value in the test with GIP Receptor is recorded as 19.8%. The “Signal: background with GIP” value with GIP Receptor was determined as 120.8.

B5: Mt-clytin wt: Mitochondrial Wild-type Clytin (mt-Clytin), SEQ ID NO:5, with COX8 mitochondrial leader sequence (protein, listed as Clytia gregaria)
chain: MSVLTPLLLRGLTGSARRLPVPRAKIHSLPPEGKLRPNFDNPKWVNRHKFMFNFLDINGDGKITLDEIVSKASDDICAKLGATPEQTKRHQDAVEAFFKKIGMDYGKEVEFPAFVDGWKELANYDLKLWSQNKKSLIRDWGEAVFDIFDKDGSGSISLDEWKAYGRISGICSSDEDAEKTFKHCDLDNSGKLDVDEMTRQHLGFWYTLDPNADGLYGNFVP
Turning to B5, the EC50 in test [1] is 1350 nM; with GIP Receptor (setting [4]) it was 12.9 nM; in test [2], 545 nM. In addition, the “Max signal with GIP (RLU × 10^−5)” value with GIP Receptor (setting [3]) came out at 3.14 RLU × 10^−5. In addition, the “% GPCR/total” value with GIP Receptor came out at 6.8%. Also, in the test with GIP Receptor, the “Signal: background with GIP” value is recorded as 146.5. The “GPCR-mediated signal as %” value with H1 histamine receptor was “about 30%”.

A word on the EC50: it is the concentration giving half of the maximal effect.
